{"source": "patent US20240238374A1", "about": "“METHODS AND COMPOSITIONS FOR INDUCING BROWN ADIPOGENESIS” (ENERGESIS PHARMACEUTICALS, INC., priority 2021, published 2024)", "system": "Diet-Induced Obese (DIO) mouse", "assay": "Diet-Induced Obese (DIO) mouse study: hFGF7 alone and with semaglutide, 28 days of dosing", "format": "in vivo, C57Bl/6 mice", "settings": "DIO mice", "description": "Obesity and insulin resistance, an early stage in the development of type 2 diabetes (also known as pre-diabetes), was induced in C57Bl/6 mice by feeding the mice with a high fat diet (Research Diets, Cat #D12492, 60% fat kcal) for 12 weeks starting at 6 weeks of age, and throughout the period of compound dosing. The mice were housed at 22-23° C. and abundant nestlets/bedding material was provided to allow the animals to maintain a microenvironment close to their thermoneutrality of 28-30° C., starting 2 weeks prior to the dosing period and for the full dosing period with a 12 h/12 h light/dark cycle. These environmental conditions are understood by those skilled in the art to reduce the stimulus for maintaining BAT, a thermogenic tissue that is recruited physiologically by cold stimulus, and permit a wider window for observing effects related to BAT recruitment.\nMice were dosed once per day by intraperitoneal injection (100 μl per mouse) with vehicle (9.6 mg/ml mannitol, 4.8 mg/ml sucrose, 0.37 mg/ml L-histidine, 0.025 mg/ml polysorbate 20 (Tween 20, CAS #9005-64-5), […], also referred to as EGS0501 in corresponding figures) dissolved in the vehicle for 28 days. In addition, some mice also received semaglutide (0.012 mg/kg=3 nmol/kg) every 3 days by intraperitoneal injection (100 μl per mouse) dissolved in the vehicle.\nBody weight was recorded every day and body composition (fat and lean mass with EchoMRI) was assessed at the end of the study (University of Cincinnati Mouse Metabolic Phenotyping Center). At the end of the dosing period, animals were fasted for 6 hours and euthanized by CO2, blood was collected, and plasma was isolated and frozen at −20° C. Plasma glucose, insulin and leptin levels were assessed at baseline and at the end of the dosing period (mice were fasted for 6 hours before all plasma collection) (University of Cincinnati Mouse Metabolic Phenotyping Center). Insulin sensitivity was determined by HOMA-IR.\nData from in vivo mouse studies are presented as means±SEM. Significance values were evaluated based on the unpaired two-tailed t-test versus vehicle using GraphPad Prism version 7 or 8 (GraphPad Software, San Diego, CA). To assess synergistic effects of A and B, the combination A+B was compared to the sum of A alone and B alone. To quantify synergistic effects, we used percent changes from baseline when baseline data were available and used the difference from vehicle for parameters without baseline data.", "data": [{"molecule": "hFGF7: recombinant human Fibroblast Growth Factor-7, also referred to as EGS0501; SEQ ID NO: 8 is the sequence for human FGF7 (protein, listed as Homo sapiens, (1)..(194) Fibroblast Growth Factor-7) MHKWILTWILPTLLYRSCFHIICLVGTISLACNDMTPEQMATNVNCSSPERHTRSYDYMEGGDIRVRRLFCRTQWYLRIDKRGKVKGTQEMKNNYNIMEIRTVAVGIVAIKGVESEFYLAMNKEGKLYAKKECNEDCNFKELILENHYNTYASAKWTHNGGEMFVALNQKGIPVRGKKTKKEQKTAHFLPMAIT", "values": [{"measurement": "plasma glucose compared to vehicle", "setting": "hFGF7 0.5 mg/kg ip once a day", "value": "significant effect"}, {"measurement": "body weight compared to vehicle", "setting": "hFGF7 1 mg/kg ip once a day", "value": "significant decreases"}, {"measurement": "epididymal white adipose (WATepi) depot weight compared to vehicle", "setting": "hFGF7 1 mg/kg ip once a day", "value": "significant decreases"}, {"measurement": "insulin resistance index (HOMA-IR) compared to vehicle", "setting": "hFGF7 1 mg/kg ip once a day", "value": "significant decreases"}, {"measurement": "plasma glucose compared to vehicle", "setting": "hFGF7 1 mg/kg ip once a day", "value": "significant decreases"}, {"measurement": "plasma insulin compared to vehicle", "setting": "hFGF7 1 mg/kg ip once a day", "value": "significant decreases"}, {"measurement": "plasma leptin compared to vehicle", "setting": "hFGF7 1 mg/kg ip once a day", "value": "significant decreases"}]}]}
